In the DeepSol protein solubility set:

Assay: soluble on expression in E. coli; label from the status in PepcDB or PDB records

Row | Sequence | soluble on expression in E. coli
1 | IGKVGYRLGFNLSDYKSKITKYDDNATTKLLSSFYPGQVMGEIWGYIADGYYSVDDFEDTSSWKLKEGITSINGYNVRPGDVKFKNLRDDESSTNVITSGDNTFDNPGDRKVIGNTTPRYQYGINLGANYAGFDLNVILQGTGKRDYWISNVLTFPMNGDNFIPLFDGLSDYWMPKDPDNGDWTAVNPNAKYPRLYGNRGNSGSNLRQSDKYLSDASYLRIKNITLSYNLPKKWLSQIFLSQMKAFVSVENVATFTSLPSGIDPERIEWNYPAFRTVSFGINITL | not soluble
2 | MGHHHHHHSHMAALASSLIRQKREVREPGGSRPVSAQRRVCPRGTKSLCQKQLLILLSKVRLCGGRPARPDRGPEPQLKGIVTKLFCRQGFYLQANPDGSIQGTPEDTSSFTHFNLIPVGLRVVTIQSAKLGHYMAMNAEGLLYSSPHFTAECRFKECVFENYYVLYASALYRQRRSGRAWYLGLDKEGQVMKGNRVKKTKAAAHFLPKLLEVAMYQEPSLHSVPEASPSSPPAP | soluble
3 | MLFFLIFLGLMATASAKAGRCNEGDQDAHFDSNKFWKCEGGRWIVVTCQINYFYDATTGFCYLSRFPTTRPYPPPFPTRPRPTQGHRCYPGTRIPYPHDHTMFLECSTDGTEYIKRYCQPDAVFVQRENMCVAIQTTYRPTRTWPTTTTTPYYGACKESAGHDGYKPDVYNCKNFYQCASGLWTQRSCGEGTIWDQHKLTCDHNRGQCRPTSPTVQPTYQPTWRPTAYPPNEVKK | soluble
4 | MDALEIFKTLFSLVMRFSSYLPSNEEISDMKTTELYAFLYVALFGPKKMKEIAEFLSTTKSNVTNVVDSLEKRGLVVREMDPVDRRTYRVVLTEKGKEIFGEILSNFESLLKSVLEKFSEEDFKVVSEGFNRMVEALSREGR | not soluble
5 | AHHHHHHGSKGILPYVIFRSKKGTFALDAYLALRVEKVERIATLIRKAEVVKRAFDIPPNADLTLEELSEFLESSMEKIRKNAGESFDRRLKKIRRWNLARLFGIPTGHTRHIAEDEHLSREHRESLLALSILENVCRGGIEPIGYGVVDVEVKEGKVYINGKLDPVYTELIKIDMKAALALLEILSE | not soluble
6 | MNTIPLHTILKLMAHPERMAILIQLLDSERNIAELAKSLSLPATAVSNHLNRLRVEGLVDFTRYHRIIEYRLVSEEAAAILHTVRDLENKRVA | not soluble
7 | GMSDPAGKPCIICVAITGSLPTKENNPAVPITLAEQVESTHEAFEAGASIAHCHVRDDEGRPTSDPDRFAALKEGLERHCPGMIVQLSTGGRSGAGQARGAMLPLCPDMASLSVGSNNFPTRVYENPPDLVDWLAAEMLKYDIKPEIEAFDLSHILQAKRMAGDGRLAGTPYVQFVMGVRNAMPADRDVFDYYIHTVRRLFGEDAPWCAAGIGPSQIVLNEWAISSGGHARTGLEDNVRLDRDRLAPSNAALVGRAVELCEKYERPVATWRQARQILGLRMV | soluble
8 | MGSDKIHHHHHHMRRLPPLNALQIFETVARHRSFTRAADHLCLTQGAVSRQIIALEDYYKFPLFKRHAKGLTLTAEGELLLPAVKESFARIEEISLRLTRQRTDLALKVPTCVMRWMLPKIMRFQAEYPELHVQITTTWQHDVDFQLEPFDAAIIYGSSPGADVQAVPLFEERLTPVCAPDLLKDKPLAELADLARHTLLHPTRDHRDWKMWLARVTEMGAANAPVIDAEHGPSFDTLDMATNAALQGFGVAISDLALIDEDVAAKRLVRPFDTVLKTGWRYYFVYPDSVAHQQKLNLFRDWIAAHWEE | not soluble
9 | MMFWDSEVAKRLLAQGALRPLDVQFARFIGKQAVLAGHNAAESELLSVLSAALSAELGRGHICLPLCDAQGNRCDLAALIGLYGEASLQHSERWLAVDWQALLQASPLVGQQGEAVPLMFDGSRLYLHRYWHYEKQLAARLTELAAPQRLSPAELANLRERLNTLFARDYLGLWQALQQKPLSSVERIQLLNDRLDVVESDALDWPAIEAVVEKAQRAADLQALEQLIPLTHCLNWQKVAAAVALTRRFAVISGGPGTGKTTTVTKLLAALISQSMAQGKVPEIKLIAPTGKAAARLTESMGKAVSQLAIEPEIAAAIPSSSSTIHRLLGAIPGSAEFRHHTRNPLHLDLLVVDEASMVDLPLMVKLVEALPKHARLILLGDKDQLASVEAGAVLGDICTFLNQGYGHEQGAQLAELTGFATLRQTASKTVNPVADCLCMLQKSYRFDARSGIGQLAKAINSGSPARVEAVWQQSFSDIEHFALSGEHYQQLLQTLVQAYRPYLSLLNQPTEQFESTQQSMLTLAKSALDAFSRCRLLCALREGDFGVMGLNTRIERALNAHKLIKTQEEIWYHGRPIMVTRNDHGLGLYNGDIGLCMRDRDDDQGRLKVYFELPDGSIKAVLPSRVPQHETAYAMTIHKSQGSEFDLTLLILPPDYSPILTRELVYTGITRAKKQLKLYCDNKVLQRAIKVKTQRASGLVARLEQ | not soluble
10 | MAAYSYRPGPGAGPGPAAGAALPDQSFLWNVFQRVDKDRSGVISDTELQQALSNGTWTPFNPVTVRSIISMFDRENKAGVNFSEFTGVWKYITDWQNVFRTYDRDNSGMIDKNELKQALSGFGYRLSDQFHDILIRKFDRQGRGQIAFDDFIQGCIVLQRLTDIFRRYDTDQDGWIQVSYEQYLSMVFSIV | soluble
11 | GPGSMYPGAVGCPWRRLDACVETSYSWALNVMSTNTSKAAVRQSKLTWDEGELTSARLKNDRNGKKARISASGSFRIRAMILACAPSSLAATPADNLPETASTLSFCEMLFNAGVAPLKTPAISSFEACTDVRVCVEAFKTGMPLFSSADEGASGNFFRYPPAAITTACSAETKLIDQSCFTRTTPFRHMGNAA | not soluble
12 | MGSDKIHHHHHHMYKVIIIDDEKAAIETLRRDLEVQTDLEIKGTAGNGAKGKKLIMDIHPDLLFLDIELPDIQGIRLLSEIREQVLWDMKVVFYTAYDKYLLQALRESAFDYLLKPYDIEELNLIIERYRKTMASARPLPSFASAVGTLMPGRDLFMISTVTGFRFLRLEEIGYFEYLKDKRLWQVELFNQTKLCLKKNTTAGDIIGYSDAFVQISQSAIININYLAMIKSKQCLLYPPFSDKEDLIISRGFLKELQERFCII | not soluble
13 | HTERVGWLSGRIAEEMGMSEVFVTEIQFAAPLHDIGKIGIPDRILLKPGILTPEEFEIMKQHTTIGFRILSRSNSPILQLGAEIALTHHERWDGSGYPRGLKEREIPISGLIVAVADSFDA | not soluble
14 | TPGDRTGTSKCRKAGCVYFGTPENKGFCTLCFIEY | soluble
15 | MSLIDTMQYGKNDSLRDEIKAYWSGRAATFDLSPGHEIFSEDERAAWHALILKHLGRGEGRKALDLASGTGVISHLMDDLGFQVTGMDWSETMLGLAREKAKSRGRNIRFFVGDAENTMEPDESADVIITRHLVWTLVDPQASFAEWFRVLKPGGKLLIVDGDFVNTGWRERLVKKLAVSLESIGLVKADQPHKPADPENTFNSILSRVYFSKGARAGDVATMLGATGFEPVSVDQELRAIHRAQAKNFSLLKGILRGLQHRYAVCAVKPDTSVKGEGHHHHHH | not soluble
16 | MLTFLIPTAKEMTIPKESHPHLLPQDSQAILKIMAAMTTEDLAKSYRIKEESAKKEQQRWQDMASQQSLAYPAYQLFNGLMYRHIKRDKLTTQEQAYLTQQVYITSSFYGIIPANHPIAEHRHDFHTRIKIEGQSLKSYWRPCYNQFAKEHPQVISLLSSEFDDVFSKDCKQLWISPKFMAEKEGQFKTHSTISKKARGAFLTACMENNCQTVDSLKSLVFAGFYYHPDLSTDHEFVYIKKEA | not soluble
